Data published in the nanobody polyreactivity screen of Harvey et al. (2022).

Assay: yeast display, Sf9 membrane polyspecificity reagent, FACS + sequencing; frameworks hold sequencing errors
Outline: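 Nanobodies came from a synthetic yeast display library in Saccharomyces cerevisiae BJ5465, induced with galactose for 36–48 hours and stained for 1 hour at 4 °C with 10% biotinylated, detergent-solubilized Sf9 membrane reagent. Cells were enriched on streptavidin microbeads and then FACS-sorted, with low and high (top ~1%) gates set on anti-HA fluorescence for expression and streptavidin fluorescence for reagent binding. Each polyreactivity label reflects the gate a clone came from. Genes were amplified by colony PCR, sequenced by MiSeq 2 × 250 and filtered by CDR length.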

Row | Sequence | polyreactivity (PSR sort gate)
1 | QVQLVESGGGLVQAGGSLRLSCAASGRIFAPYAMGWYRQAPGKEREFVATITHSGGRTYYADSVKGRFTISRDNAKNNVYLQMNSLKPEHTAVYYCAAGYGYNRLYYGVDYWGQGTQVTVSS | low polyreactivity
2 | QVQLVESGGGLVQAGGSLRLSCAASGRIFAPYAMGWYRQAPGKERELVAAITRGGITNYADSVKGRFTISRDNAKNTVYLQMNSLKPEDSAVYYCETVVNRRGFYQYFYWGQGTQVTVSS | high polyreactivity
3 | QVQLVESGGGLVQAGGSLRLSCAASGRIFAPYAMGWYRQAPGKEWQLVAAIRTSGGRTYYADSVKGRFTISRDNAKNTVYLQMNSLKPEDSAVYYCAPLAWSTGRTTTVYDYWGLGTQVTVSS | high polyreactivity
4 | QVQLVESGGGLVQAGGSLRLSCAASGRIFARNVMGWYRQAPGKERELVAGISRSGGTTYYADSVKGRFTISRDNAKNTVYLQMNSLKPEDTAVYYCAAYYFLENDYWGPGTQVTVSS | high polyreactivity
5 | QVQLVESGGGLVQAGGSLRLSCAASGRIFARYAMGWYRQAPGKERELVAAISFRGGSTYYADSVKGRFTISRDNAKNTVYLQMNSLKPEDTAVYYCAARFGGWDRGLDYWGQGTQVTVSS | high polyreactivity
6 | QVQLVESGGGLVQAGGSLRLSCAASGRIFARYAMGWYRQAPGKERELVAAISFRGGSTYYADSVKGRFTISRDNAKNTVYLQMNSQKPEDTAVYYCNGRYGRGGYDYWGQGTQVTVSS | high polyreactivity
7 | QVQLVESGGGLVQAGGSLRLSCAASGRIFARYAMGWYRQAPGKERELVAAISFRGGSTYYADSVKGRFTISRDNAQNTVYLPMNSLKPEDTAVYYCNARYGRGGYDYWGQGTQVSVSS | high polyreactivity
8 | QVQLVESGGGLVQAGGSLRLSCAASGRIFARYAMGWYRQAPGKERELVAAITTSGDSTYYADSVKGRFTISRDNAKNTVYLQMNSLKPEDTAVYYCAAERRYGRYYRLVRLLGQGTQVTVSS | high polyreactivity
9 | QVQLVESGGGLVQAGGSLRLSCAASGRIFASYAMGWYRQAPGKERELVAAISLRGGSTYYADSVKGRFTISRDNAKNTVYLQMNSLKPEDTAVYYCAAYHPHGFDYYRYYYWGQGTQVTVSS | high polyreactivity
10 | QVQLVESGGGLVQAGGSLRLSCAASGRIFASYAMGWYRQAPGKERELVAAISLSGGSTYYADSVKGRFTISRDIAKNTVYLQMNSLKPEDTAVYYCAAKNYRRYRDYYWGQGTQVTVSS | high polyreactivity
11 | QVQLVESGGGLVQAGGSLRLSCAASGRIFASYAMGWYRQAPGKERELVAAISWSGGSTNYADSVKGRFTISRDNAKNTVYLQMNRLKPEDTAVYYCAKKKRRGYGYDYWGQGTQVTVSS | high polyreactivity
12 | QVQLVESGGGLVQAGGSLRLSCAASGRIFASYAMGWYRQAPGKERELVASISWGGGSRTYADSVKGRFTISRDNAKNTVYLQMNSLKPEDTAVYYCAADVHYTFGMDYWGQGTQVTVSS | high polyreactivity
13 | QVQLVESGGGLVQAGGSLRLSCAASGRIFATNAMGLYRQAPGKERELVATITRSAGRTYYADSVKGRFTISRDNAKNTVYLQMNSLKPEDTAVYYCAASYWDTEPGYREYDYWGQGTQVTVSS | low polyreactivity
14 | QVQLVESGGGLVQAGGSLRLSCAASGRIFATNAMGWSRPAPGTERELVAGISDGGGSTYYAASVKGRFTISRDNAKNTVYLQMNRLKPEDTEVYYCAARVLDWRGDIHDSEYWGQGTQVTVSS | low polyreactivity
15 | QVQLVESGGGLVQAGGSLRLSCAASGRIFATNARGWYRQAPGKERELVAVISSGGSTNYADSVKGRFTISRDNAKNTVYLQMNSLKPEDTAVYYCAASPGSRPTQPYDYWGQGTQVTVSS | low polyreactivity
16 | QVQLVESGGGLVQAGGSLRLSCAASGRIFATYAMGWYRQAPGKERELVARITFTSGSTYYADSVKGRFTISRDNAKNTVYLQMNSLKPEDTAVYYCAAPWSVTRTSFDYWGQGTQVTVSS | high polyreactivity
17 | QVQLVESGGGLVQAGGSLRLSCAASGRIFAVNAMGWYRQAPGKERELVAAINGGGSTNYADSVKGRFTISRDNAKNTVYLQMNSLKPEDTAVYYCAADVGWRSQTRGYYWGQGTQVTVSS | high polyreactivity
18 | QVQLVESGGGLVQAGGSLRLSCAASGRIFAVYAMGWYRQAPGKEREFVAAISYSGGITYYADSVKGRFTISRDNAKNTVYLQMNSLIPEDTAVYYCNAYYYFWGQGTQVTVSS | low polyreactivity
19 | QVQLVESGGGLVQAGGSLRLSCAASGRIFAVYVMGWYRQAPGKERELVAAISQSGGRTYYADSVKGRFTISRDNAKNTVYLQMNSLITEDTAVYYCNTVTSRATNFSGLGYWGQGTQVTVSS | high polyreactivity
20 | QVQLVESGGGLVQAGGSLRLSCAASGRIFAWYAMGWYRQAPGKERELVAGISWIGGSTYYADSVKGRFTISRDNAKNTVYLQMNSLKPEDTAVYYCNARKKPGSRLDIIGYDYWGQGTQVTVSS | low polyreactivity
21 | QVQLVESGGGLVQAGGSLRLSCAASGRIFAWYSMGWYRQAPGEERELVAGISWICGSTYNADSVKGRFTISRDNAKNTVYLQMNSLKPEDTAVYYCNARKKPGSLLDIIGYDYWGQGTQVTVSS | low polyreactivity
22 | QVQLVESGGGLVQAGGSLRLSCAASGRIFAWYVMGWYRQAPGKEREFVAAIRWRSGSTHYADSVKGRFTISRDNAKNTVYLQMNSLKPEDTAVYYCARDVHGLLDYWGQGTQVTVSS | high polyreactivity

Row | Sequence | polyreactivity (PSR sort gate)
23 | QVQLVESGGGLVQAGGSLRLSCAASGRIFAYNAMGWYRQAPGKERELVAAITRSGGSTYYADSVKGRFTISRDNAKNTVYLQMNSLKPEDTAVYYCAKRYSYYIDDYWGQGTQVTVSS | low polyreactivity
24 | QVQLVESGGGLVQAGGSLRLSCAASGRIFAYYAMGWYRPAPGIERELVATIRGGGSTNYADSVKGRFTISRDNAKNTVYLQMNSLKPEATAVYYCAKPGAKWRGFDYWGLGTQVTVSS | low polyreactivity
25 | QVQLVESGGGLVQAGGSLRLSCAASGRIFAYYAMGWYRQAPGKDRELVATIRSGGDTNYADSVKGRFTISRDNAKNTVDIQMNSLKTEDTAVYYCNALYYWWYPHEYNYWGQGTQVTVSS | low polyreactivity
26 | QVQLVESGGGLVQAGGSLRLSCAASGRIFAYYAMGWYRQAPGKEREFLATITGRGGSTSYADSVKGRFTISRDNAKNTVYLQMNSLKPEDTAVYYCAKRVVVWYFGTGDYWVQGTQVTVSS | low polyreactivity
27 | QVQLVESGGGLVQAGGSLRLSCAASGRIFAYYAMGWYRQAPGKERELVAAITTNGGGTYYADSVKGRFTISRDNAKNTVYLQMNSLKPEDTAVYYCNAVKQRSSIFDYWGQGTQVTVSS | low polyreactivity
28 | QVQLVESGGGLVQAGGSLRLSCAASGRIFAYYAMGWYRQAPGKERELVAAITWRGGRTYYADSVKGRFTISRDNAKTTVYLQMNSLKPEDTAVYYCAARGYYSTYKLATDDYWGQGTQVTVSS | high polyreactivity
29 | QVQLVESGGGLVQAGGSLRLSCAASGRIFAYYAMGWYRQAPGKERELVASISSSGVSTYYADSVKGRFTISRDNAKNTVYLQMNSLKPEDTAVYYCAARQFSWDSQRYRHRYDYWGQGTQVTVSS | high polyreactivity
30 | QVQLVESGGGLVQAGGSLRLSCAASGRIFAYYAMGWYRQAPGKERELVATIRSGGDTNYADSVKGRFTISRDNAKNTVYLQMNSLKPEDTAVYYCNALYDWWYPHEYNYWGQVTQVTVSS | low polyreactivity
31 | QVQLVESGGGLVQAGGSLRLSCAASGRIFAYYAMGWYRQAPGTERELVAAITRRSGGITYYADSVKGRFTISRDNAKNTVYLQMNSLKPEDTAVYYCAARYRLSGKYRFTYDYWGQGTQVTVSS | high polyreactivity
32 | QVQLVESGGGLVQAGGSLRLSCAASGRIFAYYPMGWYRPAPGKERELVAAISRSGVSTYYADSVKGRFTISRDNAKNTVYLQMNSLKPEDTAVYYCAARWRSGFTSGDYWGQGTQVTVSS | low polyreactivity
33 | QVQLVESGGGLVQAGGSLRLSCAASGRIFAYYSMGWYRQAPGKERELVAAISRSGVSTYYADSVKGRFTISRDNAKNTVYLLMNSLKPEDTAVYYCAARWRSGFTSGDFWGQGTQVTVSS | low polyreactivity
34 | QVQLVESGGGLVQAGGSLRLSCAASGRIFAYYTMGWYRQAPGKERELVATISGSGASTYYADSVKGRFTISRDNAKNTDYLQMNSLKPEDTAVYYCAATRFYATIYDYWGQGTQVTVSS | high polyreactivity
35 | QVQLVESGGGLVQAGGSLRLSCAASGRIFAYYVMGWYRQAPGKERELVAVISGSGSSTYYADSVKGRFTISRDNAKNTVYLQMNSLKPEDTAVYYCAASIQLYRSFITREYWGQGTQVSVSS | high polyreactivity
36 | QVQLVESGGGLVQAGGSLRLSCAASGRIFDANAMGWYRQAPGKERELVAAITSSGGRTYYADSVKGRFTISRDNAKNTVYLQMNSLKPEDTAVYYCARAGRSWDTLYKYYLEHDYWGQGTQVTVSS | low polyreactivity
37 | QVQLVESGGGLVQAGGSLRLSCAASGRIFDCYAMGWYRQAPRKEREFVASISRRGGSTYYADSVKGRFTISRDNAKNTVYLQMNSLKPEDTAVYYCAADAFFRLDYYYWGQGTQVTVSS | high polyreactivity
38 | QVQLVESGGGLVQAGGSLRLSCAASGRIFDDNTMGWYRQAPGKERELVAVITSGGSTNYADSVKGRFTISRDNAKNTVYLQMNSLKPVDTAVYYCATEPGGYRFDDRAFQYGYWGQGTQVTVSS | low polyreactivity
39 | QVQLVESGGGLVQAGGSLRLSCAASGRIFDDYAMGRYRQAPGKERELVAAISWSGGSTYYADSVKGRFTISRDNAKNTVYLQMNSQKPVDTAVYYCSAPYHSYKRIGYDYWGQGTQVSVSS | low polyreactivity
40 | QVQLVESGGGLVQAGGSLRLSCAASGRIFDDYAMGWYRQAPGKERELVAAISSSGGSTYYADSVKGRFTISRDNAKNTVYLQMNSLKPEDTAVYYCARYPPGRRRYEYWGQGTQVTVSS | high polyreactivity
41 | QVQLVESGGGLVQAGGSLRLSCAASGRIFDFNPMGWYRQAPGKEREVVAAISSGGRTKYADSVKGRFTISRDNAKNTVYLQMNSLKPEDTAVYYCAASGSQPDDYWGQGTQVTVSS | high polyreactivity
42 | QVQLVESGGGLVQAGGSLRLSCAASGRIFDHYAMGWYRQAPGKERELVAAITRSGGITYYADSVKGRFTISRDNAKNTVYLQMNSLKPEDTAVYSCAALSYRYTDKFDYWGQGTQVTVSS | low polyreactivity
43 | QVQLVESGGGLVQAGGSLRLSCAASGRIFDHYARGWYRQAPGKERELVAAINSGGTTNYADSVKGRFTISRDNAKNTVYLQMNSLKPEDTAVYYCAARPRKGQYYFGGNYWGQGTQVTVSS | low polyreactivity
